Experimental data: article PMC11952846, “The sterol-regulating human ARV1 binds cholesterol and phospholipids through its conserved ARV1 homology domain” (The Journal of Biological Chemistry, 2025)

T1: 6XHIS-ARV1 (full-length human ARV1, N-terminal 6XHIS tag) (human, UniProt Q9H2C2 1-271)
T1 construct: human ARV1, 271 amino acids, full length, expressed from pET-28a(+)-6XHIS-ARV1; also called hARV1; not shown: 6XHIS, N-terminal, kept
T1 sequence (looked up): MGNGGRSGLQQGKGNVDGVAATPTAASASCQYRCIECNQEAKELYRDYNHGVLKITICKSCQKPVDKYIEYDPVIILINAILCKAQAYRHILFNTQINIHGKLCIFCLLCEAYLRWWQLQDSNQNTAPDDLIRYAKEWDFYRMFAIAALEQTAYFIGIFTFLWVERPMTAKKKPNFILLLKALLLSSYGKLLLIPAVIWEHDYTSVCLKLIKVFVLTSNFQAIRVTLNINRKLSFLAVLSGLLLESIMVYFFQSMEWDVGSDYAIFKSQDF


Key:
[1] = target: T1, 6XHIS-ARV1 (full-length human ARV1, …); assay: far-Western, overlay or dot blot; GST, GST-ARV1 truncations and 6XHIS-ARV1 dotted onto nitrocellulose, incubated with 6XHIS-ARV1 protein, probed with anti-6XHIS (and anti-GST) antibodies; conditions: both partners purified
[2] = target: the molecule itself; assay: sucrose density gradient centrifugation; 2.5 to 25% sucrose gradient in PBS, 132,000g for 19 h; fractions by SDS-PAGE and western with anti-ARV1; markers ovalbumin (50 kDa), bovine serum albumin (77 kDa), phosphorylase (103 kDa)

Binder	binding result [1]	stoichiometry N [2]
GST-ARV1-N90 (domain or fragment, human, UniProt Q9H2C2 1-90, looked up, human ARV1, amino-terminal 90 amino acids, expressed from pGEX-4T1-GST-N90; also called GST-N90; source: E. coli BL21, purified (glutathione beads); not shown: GST, N-terminal, kept) MGNGGRSGLQQGKGNVDGVAATPTAASASCQYRCIECNQEAKELYRDYNHGVLKITICKSCQKPVDKYIEYDPVIILINAILCKAQAYRH	binds	
E. coli expressed purified full-length ARV1 (sucrose density gradient) (natural protein, human, UniProt Q9H2C2 1-271, looked up, human ARV1, full length; detected with anti-ARV1 antibodies; also called purified ARV1; source: E. coli, purified) MGNGGRSGLQQGKGNVDGVAATPTAASASCQYRCIECNQEAKELYRDYNHGVLKITICKSCQKPVDKYIEYDPVIILINAILCKAQAYRHILFNTQINIHGKLCIFCLLCEAYLRWWQLQDSNQNTAPDDLIRYAKEWDFYRMFAIAALEQTAYFIGIFTFLWVERPMTAKKKPNFILLLKALLLSSYGKLLLIPAVIWEHDYTSVCLKLIKVFVLTSNFQAIRVTLNINRKLSFLAVLSGLLLESIMVYFFQSMEWDVGSDYAIFKSQDF		2
